Assay results reported in PMC7733947, “The Key Glycolytic Enzyme Phosphofructokinase Is Involved in Resistance to Antiplasmodial Glycosides” (mBio, 2020).

Test system: Nc1ncnc2c1ncn2[C@@H]1O[C@H](COP(=O)(O)O)[C@@H](O)[C@H]1O
Assay: purified protein

## PfHAD1 (Plasmodium falciparum 3D7)
  Km: 4.11 ± 0.88 mM

## PfHAD2 (Plasmodium falciparum 3D7)
  Km: 4.09 ± 0.55 mM
